# Experimental data reported in the supplement of paper PMC12667976.
# ± gives the standard error.
# B1: library; numbered along this chain (parent)
# chain: MATDAALRRLLRLHRTEIAVAVDSAFPLLHALADHDVVPEDKFQETLHLKEKEGCPQAFHALLSWLLTQDSTAILDFWRVLFKDYNLERYGRLQPILDSFPKDVDLSQPRKGRKPPAVPKALVPPPRLPTKRKASEEARAAAPAALTPRGTASPGSQLKAKPPKKPESSAEQQRLPLGNGIQTMSASVQRAVAMSSGDVPGARGAVEGILIQQVFESGGSKKCIQVGGEFYTPSKFEDSGSGKNKARSSSGPKPLVRAKGAQGAAPGGGEARLGQQGSVPAPLALPSDPQLHQKNEDECAVCRDGGELICCDGCPRAFHLACLSPPLREIPSGTWRCSSCLQATVQEVQPRAEEPRPQEPPVETPLPPGLRSAGEEVRGPPGEPLAGMDTTLVYKHLPAPPSAAPLPGLDSSALHPLLCVGPEGQQNLAPGARCGVCGDGTDVLRCTHCAAAFHWRCHFPAGTSRPGTGLRCRSCSGDVTPAPVEGVLAPSPARLAPGPAKDDTASHEPALHRDDLESLLSEHTFDGILQWAIQSMARPAAPFPS
# Variants of: B1
# Assay: AIRE transcriptional activation functional score (insulin promoter-GFP; nonsense median 0, synonymous median 1) (normalised score); higher = higher AIRE activity (more reporter activation)
# Settings: with insulin promoter-GFP reporter in HEK293
# Experimental: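 Deep mutational scan of full-length human AIRE (codon-optimized cDNA, DT-POPCode NNN libraries over three regions) integrated at a Bxb1 landing pad in HEK293 cells carrying an insulin core promoter-GFP reporter at a Flp-In site. Cells were sorted for the top 10% GFP about 14 days after transfection. Variant frequency log-ratios (select vs non-select, TileSeq) were rescaled so that the nonsense median is 0 and the synonymous median is 1, then averaged over biological replicates.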
row,Variant,AIRE transcriptional activation functional score
1,A61N,0.59 ± 0.081
2,A61F,0.26 ± 0.071
3,K42S,0.172 ± 0.31
4,K131W,-0.218 ± 0.026
5,C457F,0.264 ± 0.22
6,C457W,0.0502 ± 0.067
7,E229A,-0.0287 ± 0.2
8,S64K,-0.37 ± 0.16
9,S64Y,0.513 ± 0.21
10,T441H,1.1 ± 0.27
11,L47R,-0.624 ± 0.19
12,S402V,0.921 ± 0.23
13,G263M,0.957 ± 0.11
14,K501E,0.49 ± 0.17
15,A191M,0.662 ± 0.092
16,L385E,1.15 ± 0.1
17,I528Q,0.209 ± 0.088
18,I528W,1 ± 0.065
19,V420T,0.608 ± 0.23
20,T468L,1.18 ± 0.18
21,L366D,0.846 ± 0.22
22,L366I,0.894 ± 0.15
23,K52H,-0.455 ± 0.25
24,K52D,0.601 ± 0.17

row,Variant,AIRE transcriptional activation functional score
1,V118C,1.25 ± 0.13
2,D23Y,-0.199 ± 0.28
3,D23R,-0.0795 ± 0.48
4,S239H,1.27 ± 0.098
5,P361C,1.27 ± 0.11
6,E40N,-0.324 ± 0.28
7,R433K,1.03 ± 0.12
8,H507Y,1.18 ± 0.29
9,H507C,0.78 ± 0.14
10,S153I,1.03 ± 0.44
11,S153F,1.67 ± 0.13
12,R336M,0.49 ± 0.24
13,D502G,1.04 ± 0.15
14,A537M,0.458 ± 0.034
15,G424N,0.684 ± 0.058
16,G277N,1.2 ± 0.24
17,C310A,0.821 ± 0.23
18,L519R,0.267 ± 0.12
19,C299R,0.523 ± 0.26
20,D198P,0.58 ± 0.15
21,Q346M,1.29 ± 0.055
22,Q346F,0.819 ± 0.11
23,K164V,0.666 ± 0.47
24,F318R,1.47 ± 0.16

row,Variant,AIRE transcriptional activation functional score
1,F318E,1.34 ± 0.18
2,F318I,1.12 ± 0.31
3,L308Q,1.3 ± 0.049
4,F453P,0.207 ± 0.28
5,N86P,0.153 ± 0.6
6,V256A,1.16 ± 0.34
7,A489V,0.959 ± 0.15
8,A489R,0.51 ± 0.42
9,P148I,1.49 ± 0.64
10,F26C,-0.0618 ± 0.14
11,F26R,-0.107 ± 0.71
12,S545C,1.3 ± 0.047
13,I18Y,-0.479 ± 0.28
14,A399C,1.18 ± 0.21
15,R303P,1.09 ± 0.099
16,L7H,0.927 ± 0.78
17,G267W,1.49 ± 0.051
18,G267N,0.868 ± 0.33
19,I74L,0.0101 ± 0.28
20,V226I,0.848 ± 0.29
21,L122V,0.859 ± 0.41
22,K83A,0.537 ± 0.43
23,A386W,1.47 ± 0.048
24,K102C,0.948 ± 0.33

row,Variant,AIRE transcriptional activation functional score
1,N179W,-2.31 ± 0.17
2,N179L,0.991 ± 0.34
3,N179D,0.42 ± 0.23
4,N179V,1.49 ± 0.36
5,E136G,0.816 ± 0.32
6,E136P,1.91 ± 0.84
7,P27F,-0.037 ± 0.22
8,F525H,-0.0452 ± 0.08
9,F525S,-0.595 ± 0.53
10,G467W,1.12 ± 0.12
11,R127A,0.314 ± 0.39
12,R127D,0.358 ± 0.12
13,P315W,2.51 ± 0.075
14,G440K,0.598 ± 0.11
15,S185L,-0.0826 ± 0.26
16,D238E,0.685 ± 0.32
17,P466H,1.46 ± 0.26
18,C311R,0.856 ± 0.25
19,S412P,0.711 ± 0.4
20,R328S,1.17 ± 0.17
21,R328V,1.1 ± 0.22
22,D410E,1.11 ± 0.13
23,L81W,0.0861 ± 0.077
24,G112T,1.31 ± 0.75

row,Variant,AIRE transcriptional activation functional score
1,V123N,1.03 ± 0.1
2,V123T,0.905 ± 0.51
3,G208L,0.332 ± 0.35
4,G208Y,-0.0457 ± 0.088
5,E88V,0.181 ± 0.089
6,A321V,1.05 ± 0.26
7,G91L,0.236 ± 0.57
8,G91F,0.132 ± 0.17
9,E522S,0.0236 ± 0.093
10,A505K,0.78 ± 0.056
11,A505F,0.703 ± 0.13
12,P509Q,1.12 ± 0.14
13,T504I,1.6 ± 0.11
14,L177I,0.748 ± 0.51
15,C449F,0.317 ± 0.12
16,L327T,0.786 ± 0.33
17,C302K,0.3 ± 0.066
18,K253I,0.921 ± 0.25
19,K253G,0.631 ± 0.2
20,K253W,1.23 ± 0.048
21,G227M,-1.01 ± 0.066
22,S71T,1.05 ± 0.065
23,A134V,1.34 ± 0.35
24,S196V,1.27 ± 0.15

row,Variant,AIRE transcriptional activation functional score
1,S196W,0.394 ± 0.073
2,Y394F,0.973 ± 0.035
3,Y394P,1.43 ± 0.084
4,G180N,1.23 ± 0.37
5,C314P,1.1 ± 0.25
6,P398I,1.23 ± 0.12
7,P398K,1.04 ± 0.097
8,P398V,1.31 ± 0.1
9,H30Y,1.23 ± 0.46
10,H30R,0.24 ± 0.49
11,G379C,0.863 ± 0.31
12,G379T,0.911 ± 0.059
13,V436L,0.995 ± 0.26
14,V436K,1.21 ± 0.1
15,L418V,1.04 ± 0.086
16,L418D,0.816 ± 0.16
17,A6C,0.756 ± 0.3
18,L397F,0.99 ± 0.17
19,Q426I,0.87 ± 0.067
20,Q426T,1.17 ± 0.094
21,P163W,2.35 ± 0.1
22,P163L,0.899 ± 0.46
23,E359Q,0.92 ± 0.11
24,K159H,1.18 ± 0.71

row,Variant,AIRE transcriptional activation functional score
1,K159I,1.4 ± 0.24
2,D297T,0.153 ± 0.4
3,G462S,0.982 ± 0.23
4,P360L,1.06 ± 0.15
5,P360F,1.2 ± 0.2
6,D103W,0.822 ± 0.55
7,Q172C,1.13 ± 0.49
8,D98P,0.632 ± 0.26
9,D98I,0.501 ± 0.42
10,W335M,1.39 ± 0.12
11,W335D,1.1 ± 0.21
12,T130A,1.78 ± 0.43
13,T130D,0.225 ± 0.23
14,L488Y,1.31 ± 0.13
15,L488D,0.449 ± 0.34
16,R257M,0.588 ± 0.062
17,Q530D,0.251 ± 0.23
18,G201F,1.02 ± 0.2
19,G201T,0.924 ± 0.23
20,P497H,0.871 ± 0.17
21,C223N,0.407 ± 0.086
22,C223Y,0.577 ± 0.15
23,V348H,1.33 ± 0.23
